# B1: CD95 (full-length protein, amino acids 1 to 335) fused C-terminally to mEGFP or mCherry, P25445 26-335 (receptor)
# chain: QVTDINSKGLELRKTVTTVETQNLEGLHHDGQFCHKPCPPGERKARDCTVNGDEPDCVPCQEGKEYTDKAHFSSKCRRCRLCDEGHGLEVEINCTRTQNTKCRCKPNFFCNSTVCEHCDPCTKCEHGIIKECTLTSNTKCKEEGSRSNLGWLCLLLLPIPLIVWVKRKEVQKTCRKHRKENQGSHESPTLNPETVAINLSDVDLSKYITTIAGVMTLSQVKGFVRKNGVNEAKIDEIKNDNVQDTAEQKVQLLRNWHQLHGKKEAYDTLIKDLKKANLCTLAEKIQTIILKDITSDSENSNFRNEIQSLV
# Legend:
# [1] = molecular target: CD95 (full-length protein, amino acids 1 to 335) fused C-terminally to mEGFP or mCherry (human (from the printed accession)) (UniProt P25445)
# [2] = molecular target: T1, CD95 (full-length protein, amino acids 1 to 335) fused C-terminally to mEGFP or mCherry (human (from the printed accession)), P25445; assay: FRET or BRET; CELFIS (FRET-FLIM, donor lifetime, x_FRET for each cell) in live HeLa CD95^KO cells with bicistronic mCherry/mEGFP plasmids; no ligand; evaluated from 30 up to 1000 receptors/μm^2; 37°C; details: remark: other sources report otherwise
# T1 chain: B1 chain
# [3] = molecular target: T1, CD95 (full-length protein, amino acids …); assay: FRET or BRET; CELFIS (FRET-FLIM) in live HeLa CD95^KO cells with bicistronic mCherry/mEGFP plasmids; after addition of CD95L (200 ng/ml with enhancer); repeated measurements up to 6 hours; 37°C; details: remark: other sources report otherwise
Molecule,"percentage of apoptotic cells (time-lapse microscopy, HeLa cells expressing CD95-mEGFP), CD95L 2 to 200 ng/ml (% apoptotic cells) [1]",dimer fraction [2] [%],monomer fraction [2] [%],oligomer fraction with CD95L [3] [%],"oligomer fraction with CD95L, cells that did not show apoptosis, after 4 hours [3] [%]","oligomer fraction with CD95L, cells that underwent apoptosis [3] [%]","oligomer fraction with CD95L, just before apoptosis [3] [%]","oligomerization rate with CD95L, cells that died (% oligomers/hour) [3]","oligomerization rate with CD95L, cells that stayed alive (% oligomers/hour) [3]",x FRET with CD95L [3] [%]
"FasL, soluble (human) (recombinant) (from UniProt P48023 130-281) (ligand)",99,–,–,–,–,–,–,–,–,–
B1,–,< 4,96,< 21,12,18,15,6,2.3,12

# Source: PMC11809610
